Test results from patent publication US20240374682A1, “PHARMACEUTICAL USE OF HYPOXIA-INDUCIBLE LIPID DROPLET-ASSOCIATED PROTEIN OR TRUNCATED FRAGMENT THEREOF” (Westlake University, priority 2021, published 2024).

Key:
[1] = tested on: ES-2 cells; experiment: APOE3-3xHA uptake by recipient ES-2 cells with synthesized HILPDA peptides (immunofluorescence); assay type: cell-based; conditions: 10 μM peptide, 24 hours, versus solvent (DMSO)
Description: (§1) 1) HEK293T cells were cultured with DMEM medium in a 10 cm cell culture dish.
2) A plasmid of APOE3-3xHA gene was expressed in the above cells.
(§2) 3) After 12 hours, the old medium in 1) was replaced with fresh DMEM cell culture medium.
4) After further culturing for 48 hours, the media of the cells cultured in 3) were collected. respectively, and these media were used to directly culture the recipient ES-2 cells (Cat. No.: TCHu111. Cell Bank of Typical Culture Collection Committee of Chinese Academy of Sciences/Cell Resource Center of Shanghai Institutes for Life Sciences. Chinese Academy of Sciences) that had been pre-digested with 0.25% EDTA trypsin, and at the same time, 10 μM truncated sequence HILPDA P01, HILPDA P03 or the corresponding volume of solvent (DMSO) was added to the cell culture media.
5) After culturing for 24 hours, anti-HA antibody (Cat. No.: ab9110, abcam: a fusion protein for detecting APOE3-3xHA gene expression) was used to carry out immunofluorescent staining experiments.

[2] = tested on: HuH-7 cells, Hep-G2 cells or 786-0 cells; experiment: Uptake of Dil-labelled human low-density lipoprotein by cells (flow cytometry); assay type: cell-based; conditions: 10 μM peptide, 5 μg/mL LDL-Dil, 3 hours, versus solvent (DMSO)
Description: 1) HuH-7 cells (Cat. No.: TCHu182. Cell Bank of Type Culture Collection Committee of Chinese Academy of Sciences/Cell Resource Center of Shanghai Institutes for Life Sciences. Chinese Academy of Sciences) and Hep-G2 cells (Cat. No.: HB-8065. ATCC. USA) or 786-0 cells (Cat. No.: Cell Bank TCHul86. Cell Bank of Type Culture Collection Committee of Chinese Academy of Sciences/Cell Resource Center of Shanghai Institutes for Life Sciences, Chinese Academy of Sciences) were cultured with DMEM medium in a 10 cm cell culture dish.
2) Low-density lipoprotein from human plasma and Dil complex (Cat. No. L3482. Invitrogen) were added at a final concentration of 5 μg/mL to the above cells, and at the same time. 10 μM HILPDA P01, truncated sequence P03 of HILPDA or corresponding volume of solvent (DMSO) was added to the cell culture medium.
3) After culturing for 3 hours, the cells were washed twice with PBS, and the flow cytometry experiment was performed, and the Dil signal intensity of the cells was detected on the PE channel (as shown in FIGS. 8A to 8D).

[3] = tested on: SD rats; experiment: APOE content in rat cerebrospinal fluid after lateral ventricle injection (ELISA); assay type: in vivo; conditions: 0.8 mg/kg lateral ventricle, 4 hours after injection, versus solvent
Description: 1) SD rats (8-10 weeks, male, Shanghai Family Planning Institute) were injected through lateral ventricle with the truncated sequence P04 of HILPDA at a dose of 0.8 mg/kg rat body weight or with the same amount of solvent (50% DMSO+50% 0.9% NaCl) in total of 20 μL:
2) After 4 hours of injection, the cerebrospinal fluid of the rat was collected:
3) ELISA kit (Cat. No.: E-EL-R1230c, ELabScience) was used to detect the apolipoprotein APOE content in the cerebrospinal fluid.

[4] = tested on: SD rats; experiment: Low-density lipoprotein cholesterol level in rat plasma after tail vein injection; assay type: in vivo; conditions: 1.5 mg/kg tail vein, 5 hours after injection, versus solvent
Description: 1) SD rats (8-10 weeks old, female, Shanghai Family Planning Institute) were injected through tail vein with HILPDA P02 at a dose of 1.5 mg/kg rat body weight or the same amount of solvent (50% DMSO+50% 0.9% NaCl) in total of 100 μL:
2) After 5 hours of injection, about 1 mL of blood was collected from the tail vein, and the collected blood was placed in an EDTA-K2 anticoagulant tube and underwent ice-bath for 1 hour, then centrifuged at 2000*g at 4° C., for 10 minutes, and the supernatant plasma was collected:
3) A biochemical analyzer (Mindray 240) was used to analyze the low-density lipoprotein cholesterol content in the plasma (as shown in FIG. 10).

[5] = tested on: neuronal cells obtained by induction and differentiation of human embryonic stem cells; experiment: APOE uptake by recipient neuronal cells from conditioned medium (western blotting); assay type: cell-based; conditions: conditioned HEK293T medium, 24 hours
Description: as §1
2) The above cells separately were: transfected to express APOE2-3xHA plasmid, transfected to express APOE3-3xHA plasmid, transfected to express APOE4-3xHA plasmid, co-transfected with plasmid expressing HILPDA-Flag and APOE2-3xHA plasmid, co-transfected with plasmid expressing HILPDA-Flag and APOE3-3xHA plasmid, and co-transfected with plasmid expressing HILPDA-Flag and APOE4-3xHA plasmid.
as §2
4) After further culturing for 48 hours, the media of the cultured cells in 3) were collected, respectively, and these media were used to directly culture recipient neuronal cells, wherein the neuronal cells were obtained by induction and differentiation of human embryonic stem cells (WA09-H9 Wincell Research Institute) through STEMdiff Neural (STEMCELL Technologits) differentiation system.
5) After culturing for 24 hours, anti-Actin (Cat. No.: Proteintech, 66009-1-Ig) and anti-HA antibody (Cat. No.: ab9110, abcam: used to detect three fusion proteins expressed by different alleles APOE2-3xHA, APOE3-3xHA or APOE4-3xHA) were used to perform western blotting.

[6] = tested on: mouse brain slices; experiment: APOE3 uptake by mouse brain slices from conditioned medium (immunofluorescence); assay type: cell-based; conditions: conditioned HEK293T medium, 48 hours, versus GFP-Flag + APOE3-3xHA
Description: as §1
(§3) 2) The above cells were separately co-transfected with:
plasmid expressing GFP-FLAG and APOE3-3xHA plasmid, and
plasmid expressing HILPDA-Flag and APOE3-3xHA plasmid,
as §2
4) After further culturing for 48 hours, the media of the cultured cells in 3) were collected, respectively, and these media were used to directly culture mouse brain slices, wherein the brain slices were obtained by slicing fresh mouse brains to reach a thickness of 150 μm by a vibrating microtome. The slices were cultured in DMEM medium.
5) After culturing for 48 hours, immunofluorescent staining experiments were carried out with anti-HA antibody (Cat. No.: ab9110, abcam: for detecting APOE3-3xHA fusion protein).

[7] = tested on: recipient cells (786-O, 769-P, HuH7, ES-2); experiment: APOE uptake by recipient cells from conditioned medium of HEK293T cells co-expressing HILPDA-Flag and APOE-3xHA (immunofluorescence); assay type: cell-based; conditions: 24 hours
Description: as §1, §3
GFP-Flag expressing plasmid and APOE2-3xHA plasmid,
GFP-Flag expressing plasmid and APOE3-3xHA plasmid,
GFP-Flag expressing plasmid and APOE4-3xHA plasmid,
HILPDA-Flag expressing plasmid and APOE2-3xHA plasmid,
HILPDA-Flag expressing plasmid and APOE3-3xHA plasmid, and
HILPDA-Flag expressing plasmid and APOE4-3xHA plasmid.
as §2
4) After further culturing for 48 hours, the media of the cultured cells in 3) were collected, respectively, and these media were used to directly culture the recipient cells, such as 786-O (Cat. No.: Cell Bank TCHu186, Cell Bank of Type Culture Collection Committee of Chinese Academy of Sciences/Cell Resource Center of Shanghai Institutes for Life Sciences, Chinese Academy of Sciences), 769-P (Cat. No.: Cell Bank TCHu215, Cell Bank of Type Culture Collection Committee of Chinese Academy of Sciences/Cell Resource Center of Shanghai Institutes for Life Sciences, Chinese Academy of Sciences), HuH7 (Cat. No.: TCHu182, Cell Bank of Type Culture Collection Committee of Chinese Academy of Sciences/Cell Resource Center of Shanghai Institutes for Life Sciences, Chinese Academy of Sciences), ES-2 (Cat. No.: TCHu111, Cell Bank of Type Culture Collection Committee of Chinese Academy of Sciences/Cell Resource Center of Shanghai Institutes for Life Sciences, Chinese Academy of Sciences) wild-type cells, that had been pre-digested with trypsin containing 0.25% EDTA.
5) After culturing for 24 hours, anti-Flag (Cat. No.: F1804, sigma: for detecting GFP-Flag or HILPDA-Flag fusion protein) and anti-HA antibody (Cat. No.: ab9110, abcam: for detecting fusion proteins expressed by three different alleles of APOE2-3xHA, APOE3-3xHA or APOE4-3xHA) were used to perform immunofluorescent staining experiments.

“HILPDA P03: synthesized truncated human HILPDA, SEQ ID NO: 13 (MKHVLNLYLLGVVLTLLSIF) (truncated fragment of human HILPDA)” was tested, and the “APOE3-3xHA uptake by recipient cells (anti-HA fluorescent signal)” value (“APOE3-3xHA uptake by recipient cells” below) [1] was “Promote the Clearance” and the “uptake of human low-density lipoprotein particles (Dil signal intensity)” value [2] was “Promote the Uptake”.

In the case of “HILPDA P04: synthesized truncated rat HILPDA, SEQ ID NO: 14 (MKYMLNLYVLGVMLTLLSIF) (truncated fragment of rat HILPDA)”, the “content of apolipoprotein APOE in the cerebrospinal fluid” value [3] is reported as “significantly decreased”.

B1: HILPDA P01: synthesized mouse HILPDA polypeptide, SEQ ID NO: 2 (peptide, listed as Mus musculus)
chain: MKFMLNLYVLGIMLTLLSIFVRVMESLGGLLESPLPGSSWITRGQLANTQPPKGLPDHPSRGVQ
B1 was tested, and the “APOE3-3xHA uptake by recipient cells” value [1] was “Promote the Clearance” and the “uptake of human low-density lipoprotein particles (Dil signal intensity)” value [2] was “Promote the Uptake”.

B2: HILPDA P02: synthesized rat HILPDA polypeptide, SEQ ID NO: 12 (peptide, listed as Rattus norvegicus)
chain: MKYMLNLYVLGVMLTLLSIFVRLMESLGGLLENPLPGSSWITRGHLANTQPPRGLPDHPSRGVQ
For B2, the “low-density lipoprotein cholesterol level in plasma” value [4] was “significantly reduced”.

B3: HILPDA-Flag: human HILPDA protein fused with FLAG tag, expressed in HEK293T cells and secreted into culture medium (protein, UniProt Q9Y5L2 1-63, looked up)
Hypoxia-inducible lipid …: MKHVLNLYLLGVVLTLLSIFVRVMESLEGLLESPSPGTSWTTRSQLANTEPTKGLPDHPSRSM
modifications: FLAG tag
notes: human HILPDA protein fused with FLAG tag, expressed in HEK293T cells and secreted into culture medium
For B3, the “APOE2-3xHA level in recipient neuronal cells (anti-HA bands)” value ([5]; versus APOE2-3xHA alone) was “higher levels of APOE”, the “APOE3-3xHA level in recipient neuronal cells (anti-HA bands)” value ([5]; versus APOE3-3xHA alone) was “higher levels of APOE” and the “APOE4-3xHA level in recipient neuronal cells (anti-HA bands)” value ([5]; versus APOE4-3xHA alone) was “higher levels of APOE”. For the same molecule, the “APOE3-3xHA uptake by brain slices (anti-HA fluorescent signal)” value [6] was “more and stronger fluorescent signals”, the “APOE2-3xHA uptake by recipient cells (anti-HA fluorescent signal)” value ([7]; versus GFP-Flag + APOE2-3xHA) was “more and stronger fluorescent signals” and the “APOE3-3xHA uptake by recipient cells” value ([7]; versus GFP-Flag + APOE3-3xHA) was “more and stronger fluorescent signals”. The “APOE4-3xHA uptake by recipient cells (anti-HA fluorescent signal)” value ([7]; versus GFP-Flag + APOE4-3xHA) was “more and stronger fluorescent signals”.
